For this experiment, the target named is trimerized [change]-Tag (A/duck/Viet Nam/TG24-01/2005 (H5N1)). Nature of the experiment: cell-based or functional assay.

On to S-Protein-GCN4 (reference 2), for which the hemagglutination unit (HAU), co-expression with H5-S-Tag in plants in vivo was 2 HAU and the hemagglutination unit (HAU), combination with H5-S-Tag in vitro is 0 HAU.
The matching figures for S-Protein-pII (reference 1): 0 HAU and 0 HAU.
The matching figures for “wild type S-Protein (from UniProt P61823 47-150)”: 4 HAU and 0 HAU.

For the origin of these results see patent US20200181633A1.
